Experimental data: the supplement of paper PMC9876800

Tested on: peptide library, one residue held at a place counted from the S/T acceptor
Test: relative phosphorylation of the sub-library (ratio to the mean residue at this position); higher = residue favoured
Settings: human
In short: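 Purified recombinant kinases (human or orthologue constructs) were incubated in 384-well plates with biotinylated degenerate peptide sub-libraries, each fixing one residue at one position around a central Ser/Thr. Peptides were at 50 μM, with 50 μM ATP spiked with γ-32P-ATP, for 90 min under kinase-specific conditions. Spots on streptavidin membranes were phosphorimaged and quantified by densitometry. Relative sub-library phosphorylation is a ratio to the mean residue at that position.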

Chain of PASK, construct: aa949-1323 (Q96RG2 949-1323, looked up): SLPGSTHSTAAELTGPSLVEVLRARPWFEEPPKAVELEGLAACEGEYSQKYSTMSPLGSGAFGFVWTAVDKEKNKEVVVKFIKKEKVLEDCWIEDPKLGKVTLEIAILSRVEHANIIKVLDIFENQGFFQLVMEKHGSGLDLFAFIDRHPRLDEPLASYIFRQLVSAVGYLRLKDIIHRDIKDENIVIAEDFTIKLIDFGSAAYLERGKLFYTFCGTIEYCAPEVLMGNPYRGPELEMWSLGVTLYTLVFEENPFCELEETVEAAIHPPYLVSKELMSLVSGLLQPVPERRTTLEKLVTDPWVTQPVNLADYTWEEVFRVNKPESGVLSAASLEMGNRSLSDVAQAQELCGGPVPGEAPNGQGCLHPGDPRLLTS
Chain of PDK4, construct: Full length (Q16654 whole entry, looked up): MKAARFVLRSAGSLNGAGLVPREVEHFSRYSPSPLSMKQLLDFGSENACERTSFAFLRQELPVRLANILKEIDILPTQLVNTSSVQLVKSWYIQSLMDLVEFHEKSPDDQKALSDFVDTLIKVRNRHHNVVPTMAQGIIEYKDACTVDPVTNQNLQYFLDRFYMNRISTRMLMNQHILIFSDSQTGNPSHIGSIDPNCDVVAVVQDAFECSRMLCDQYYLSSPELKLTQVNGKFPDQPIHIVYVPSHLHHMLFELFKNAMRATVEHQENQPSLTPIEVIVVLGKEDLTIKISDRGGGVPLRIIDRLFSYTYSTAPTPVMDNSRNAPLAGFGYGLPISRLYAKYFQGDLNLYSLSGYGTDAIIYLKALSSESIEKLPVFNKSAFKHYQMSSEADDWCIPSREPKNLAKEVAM
Chain of PHKG1, construct: Full length (Q16816 whole entry, looked up): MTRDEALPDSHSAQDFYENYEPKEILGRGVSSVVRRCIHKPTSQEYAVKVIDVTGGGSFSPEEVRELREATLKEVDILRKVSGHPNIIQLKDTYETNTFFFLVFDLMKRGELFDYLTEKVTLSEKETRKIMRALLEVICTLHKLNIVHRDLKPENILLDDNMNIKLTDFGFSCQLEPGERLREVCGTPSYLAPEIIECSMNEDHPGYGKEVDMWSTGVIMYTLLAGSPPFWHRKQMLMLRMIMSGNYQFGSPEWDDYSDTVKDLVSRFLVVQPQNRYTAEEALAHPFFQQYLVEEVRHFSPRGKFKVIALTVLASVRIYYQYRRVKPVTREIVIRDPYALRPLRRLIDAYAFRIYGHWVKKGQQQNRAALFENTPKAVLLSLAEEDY

PASK, construct: aa949-1323 (from UniProt Q96RG2)
relative phosphorylation
Settings	at +1	at +2	at +3	at +4	at -1	at -2	at -3	at -4	at -5
A fixed	0.999	0.848	0.766	0.739	0.615	1.36	0.758	0.939	0.757
D fixed	1.04	2.11	1.66	1.65	1.2	0.778	0.63	1	0.896
E fixed	1.4	1.34	1.35	1.43	0.919	0.762	0.711	1.55	0.776
F fixed	1.07	0.829	1.14	0.825	0.491	0.814	0.565	0.779	0.72
G fixed	1.11	0.967	0.808	1.03	0.746	1.19	0.864	0.804	0.811
H fixed	1.21	1.25	1.14	1.12	0.903	1.33	0.927	1.04	2.98
I fixed	0.665	0.664	0.583	0.748	0.384	0.493	0.425	0.663	0.742
K fixed	0.944	0.698	0.956	0.853	2.22	1.42	1.34	1.39	1.33
L fixed	0.665	0.65	0.784	0.732	0.609	0.746	0.484	0.723	1.03
M fixed	0.914	0.758	0.823	0.764	0.665	0.774	0.55	0.829	0.909
N fixed	1.09	1.49	1.03	1.08	1.59	1.16	0.623	0.995	0.884
P fixed	0.623	0.796	1.2	1.41	2.89	1.54	1.83	1.3	0.66
Q fixed	0.932	1.14	0.996	1.07	1.07	1.08	0.764	1.05	0.788
R fixed	0.787	0.825	0.888	0.65	0.954	1.38	4.8	1.42	1.39
V fixed	0.854	0.71	0.591	0.668	0.447	0.638	0.433	0.68	0.625
W fixed	1.26	0.953	1.25	1.05	0.53	0.704	0.664	0.944	0.927
Y fixed	1.45	0.966	1.04	1.18	0.774	0.835	0.635	0.9	0.775
pThr fixed	3.06	2.97	2.92	2.7	1.02	1.43	1.04	1.25	1.11
pTyr fixed	2.5	2.53	3.07	2.25	1.58	1.41	1.28	1.98	1.59

PDK4, construct: Full length (from UniProt Q16654)
relative phosphorylation
Settings	at +1	at +2	at +3	at +4	at -1	at -2	at -3	at -4	at -5
A fixed	0.674	0.87	1.15	0.987	1.05	0.953	0.939	0.873	1.06
D fixed	0.79	1.21	1.1	1.16	1.09	0.775	0.841	0.861	0.995
E fixed	0.679	1.64	1.06	0.972	0.718	0.715	0.788	0.818	0.876
F fixed	1.34	0.962	1.52	1.07	1.21	1.03	1.65	1.53	1.25
G fixed	0.705	1.22	1.05	1.06	1.29	1.22	1.02	0.992	1.03
H fixed	0.838	0.883	1.09	0.947	1.02	1.23	1.11	0.983	0.996
I fixed	1.2	0.742	1.03	0.802	0.778	0.776	0.912	0.897	0.99
K fixed	0.692	0.745	0.622	0.834	0.847	0.889	0.827	0.86	0.88
L fixed	1.74	0.951	0.993	0.98	0.947	0.97	0.961	0.905	1.05
M fixed	1.48	1.06	1.23	1.02	1.15	1.08	1.07	1.04	1.29
N fixed	0.732	1.05	0.898	1.36	1.1	0.883	0.906	0.964	1.15
P fixed	0.825	0.823	0.93	1.01	0.874	1.09	0.973	0.878	0.723
Q fixed	0.862	1.09	0.818	0.959	0.89	0.964	0.912	0.95	0.791
R fixed	0.853	0.939	0.729	0.968	1.03	1.02	0.913	0.962	0.869
V fixed	0.972	0.791	0.771	0.828	0.783	0.864	0.831	0.827	0.825
W fixed	1.61	1.03	1.01	1.04	1.22	1.55	1.35	1.66	1.21
Y fixed	1.34	0.962	1.52	1.07	1.21	1.03	1.65	1.53	1.25
pThr fixed	0.849	1.01	1.27	1.36	0.587	0.794	0.865	0.973	1.09
pTyr fixed	0.895	1.19	0.99	1	0.7	0.943	1.31	1.83	1.07

PHKG1, construct: Full length (from UniProt Q16816)
relative phosphorylation
Settings	at +1	at +2	at +3	at +4	at -1	at -2	at -3	at -4	at -5
A fixed	0.524	0.708	0.898	0.937	0.837	1.11	0.736	0.926	1
D fixed	0.175	0.2	0.276	0.343	0.512	0.624	0.356	0.439	0.436
E fixed	0.197	0.139	0.272	0.238	0.411	1.49	0.376	0.573	0.367
F fixed	3.7	1.16	1.29	1.13	1.06	0.838	0.53	0.865	1.18
G fixed	0.491	0.721	1.06	1.02	0.741	1.13	0.824	1.15	0.937
H fixed	0.712	1.35	1.3	1.18	1.24	0.984	1.12	1.11	1.1
I fixed	1.5	0.516	0.891	0.75	0.611	0.363	0.278	0.728	0.791
K fixed	0.777	2.04	1.37	2.01	1.44	1.12	2.55	1.56	1.46
L fixed	1.17	0.544	1.06	0.956	0.927	0.576	0.376	0.823	1.34
M fixed	1.65	0.694	0.957	0.886	1.18	0.969	0.458	0.957	0.824
N fixed	0.513	0.739	0.786	0.866	1.32	1.28	0.721	0.764	0.664
P fixed	0.292	0.721	1.09	1.29	0.999	0.702	0.926	1.17	1.01
Q fixed	0.779	0.703	0.782	1.01	1.14	2.05	0.936	0.927	0.779
R fixed	0.876	3.73	1.46	1.67	1.57	1.55	4.81	1.63	1.58
V fixed	1.22	0.501	0.721	0.752	0.711	0.508	0.311	0.721	0.832
W fixed	1.21	1.48	1.56	1.1	0.931	0.813	0.98	1.58	1.71
Y fixed	1.22	1.06	1.24	0.862	1.38	0.875	0.71	1.08	0.99
pThr fixed	0.419	0.25	0.393	0.356	0.535	0.529	0.621	0.846	0.68
pTyr fixed	0.329	0.171	0.348	0.254	0.675	0.4	0.469	0.721	0.599
